Data as given in publication PMC7018950, “A conserved strategy of chalcone isomerase-like protein to rectify promiscuous chalcone synthase specificity” (Nature Communications, 2020).
Each block holds one binder with its values, some of them ahead of it.

Assays:
[1] = target: T1, His6-tagged Arabidopsis thaliana chalcone synthase (AtCHS) (Arabidopsis thaliana, UniProt P13114 1-395); test: BLI; BLItz; His6-tagged CHS immobilised on anti-His6 sensors, GST-tagged CHIL loaded (30-150 s), wash (150-270 s); 100 mM HEPES-NaOH, pH 7.5; 1:1 binding model; apparent KD; conditions: both partners purified
T1 construct: also called TT4; source: E. coli BL21 (pCold I), purified; not shown: His6, N-terminal, kept
T1 sequence (looked up): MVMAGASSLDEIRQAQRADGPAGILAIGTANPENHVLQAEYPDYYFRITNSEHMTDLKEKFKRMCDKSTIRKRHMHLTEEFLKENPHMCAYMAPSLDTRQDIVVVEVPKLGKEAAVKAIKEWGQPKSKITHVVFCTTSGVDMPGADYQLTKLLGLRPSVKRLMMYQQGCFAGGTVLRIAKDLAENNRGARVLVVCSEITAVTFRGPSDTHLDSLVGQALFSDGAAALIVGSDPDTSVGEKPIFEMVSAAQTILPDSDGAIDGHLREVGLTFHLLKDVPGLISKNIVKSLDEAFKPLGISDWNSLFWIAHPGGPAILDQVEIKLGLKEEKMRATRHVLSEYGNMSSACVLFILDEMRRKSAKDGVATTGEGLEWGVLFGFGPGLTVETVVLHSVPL

[2] = target: T2, glutathione S-transferase-tagged CHIL of morning glory (Ipomoea nil (morning glory)); test: BLI; BLItz; His6-tagged CHS immobilised on anti-His6 sensors, GST-tagged CHIL loaded; 100 mM HEPES-NaOH pH 7.5; 1:1 binding model; apparent KD; conditions: both partners purified
T2 construct: the purification of the GST fusions is not described; also called InCHIL; EFP; source: E. coli (pGEX4T-1)

Kd [1]: 9.15 nM
koff [1]: 0.00137 s⁻¹
kon [1]: 150000 M⁻¹ s⁻¹
B1: glutathione S-transferase-tagged Arabidopsis thaliana chalcone isomerase-like protein (AtCHIL) (natural protein)
chain: MVMVHEVPFPPQIITSKPLSLLGQGITDIEIHFLQVKFTAIGVYLDPSDVKTHLDNWKGKTGKELAGDDDFFDALASAEMEKVIRVVVIKEIKGAQYGVQLENTVRDRLAEEDKYEEEEETELEKVVGFFQSKYFKANSVITYHFSAKDGICEIGFETEGKEEEKLKVENANVVGMMQRWYLSGSRGVSPSTIVSIADSISAVLT
notes: chalcone isomerase-like protein AtCHIL, Arabidopsis thaliana; source: E. coli (pGEX4T-1)

Kd [2]: 1 nM
B2: His6-tagged CHS of morning glory (enzyme)
chain: MVTVEEVRKAQRAEGPATILAIGTATPANCVDQSTYPDYYFRITNSDHMTDLKQKFQRMCDKSMITKRYMHLTEEILKENPSFCEYMAPSLDARQDIVVVEVPKLGKEAAQSAIKEWGQPKSKITHVIFCTTSGVDMPGADYQLTKLLGLRPSVKRLMMYQQGCFAGGTVLRVAKDLAENNKAARVLVVCSEITVVTFRGPNETHLDSLVGQALFGDGAAAIIVGSDPTPAEKPLFQLVSAAQTLAPDSCGAIDGHLREVGLTFHLLKDVPSIVSNNIEKCLSEAFNPLGISDWNSIFWIAHPGGPAILDQVEDKLGLKPEKLRATRHVLSEYGNMSSACVLFILDEMRKASSNDGLGTTGEGLEWGVLFGFGPGLTIETVVLHSVPA
